Source: paper PMC5353710, “Structural insights into the γ-lactamase activity and substrate enantioselectivity of an isochorismatase-like hydrolase from Microbacterium hydrocarbonoxydans” (Scientific Reports, 2017)

Tests used:
purified protein [1] = substrate: O=C1N[C@H]2C=C[C@@H]1C2; experiment: purified protein; conditions: 50 mM Tris-HCl pH 7.5, 25 °C, substrate 5 to 200 mM
purified protein [2] = substrate: O=C1N[C@@H]2C=C[C@H]1C2; experiment: purified protein; conditions: 50 mM Tris-HCl pH 7.5, 25 °C, substrate 5 to 200 mM

B1: MhIHL (Mh33H4-5540) (Microbacterium hydrocarbonoxydans) (protein)
chain: MAAPRRTVVLAIDLQAGVTPGCFDEEGVLSRAAALVERARAGGVPVVWVHHDPVGVGTPEWELAAPLHRAEGEPLVRKNYRDSFADTTLRETLDELGATHLVITGAQSDFCVRTTMQRAAAEGYDVTLVSDAHTTVDTEWEGVRISGEQIVAHTNMYFSGLRYPGQEFVIATHDHVAL
Purified protein [1]
  Km: 34.2 mM
  kcat: 19.8 s⁻¹
  kcat/Km: 580 M⁻¹ s⁻¹
Purified protein [2]
  Km: 12.9 mM
  kcat: 203 s⁻¹
  kcat/Km: 15800 M⁻¹ s⁻¹
